Measurements as given in article PMC12416549 (2024).

T1: TNFR1 (Homo sapiens, UniProt P19438)
T1 chain: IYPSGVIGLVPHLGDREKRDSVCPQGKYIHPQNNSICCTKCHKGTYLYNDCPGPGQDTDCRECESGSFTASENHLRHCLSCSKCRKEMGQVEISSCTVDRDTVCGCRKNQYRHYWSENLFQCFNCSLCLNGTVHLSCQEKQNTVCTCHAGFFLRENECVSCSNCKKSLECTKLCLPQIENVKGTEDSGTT


Target: T1, TNFR1
Experiment: yeast display SC50

| Binder | apparent Kd (screen) [nM] |
| --- | --- |
| E103N (designed binder) SMEEEVEKAAKEYEKKKKEAIEKHLEKLKAKDKEAAERFLKELEEAAKEYAKDEAKTMSEEEAKRRAKKYKEKVLLSELSEEEQKEIKEAEEKLVRTILKYVNEAAK | 0.49 |
| K85T (designed binder) SMEEEVEKAAKEYEKKKKEAIEKHLEKLKAKDKEAAERFLKELEEAAKEYAKDEAKTMSEEEAKRRAKKYKEKVLLSELSEEEQTEIKEAEEKLVRTILKYVEEAAK | 0.49 |
| K17P (designed binder) SMEEEVEKAAKEYEKKPKEAIEKHLEKLKAKDKEAAERFLKELEEAAKEYAKDEAKTMSEEEAKRRAKKYKEKVLLSELSEEEQKEIKEAEEKLVRTILKYVEEAAK | 22.2 |
| E83C (designed binder) SMEEEVEKAAKEYEKKKKEAIEKHLEKLKAKDKEAAERFLKELEEAAKEYAKDEAKTMSEEEAKRRAKKYKEKVLLSELSEECQKEIKEAEEKLVRTILKYVEEAAK | 0.446 |
| E44V (designed binder) SMEEEVEKAAKEYEKKKKEAIEKHLEKLKAKDKEAAERFLKELVEAAKEYAKDEAKTMSEEEAKRRAKKYKEKVLLSELSEEEQKEIKEAEEKLVRTILKYVEEAAK | 0.446 |
| E12K (designed binder) SMEEEVEKAAKKYEKKKKEAIEKHLEKLKAKDKEAAERFLKELEEAAKEYAKDEAKTMSEEEAKRRAKKYKEKVLLSELSEEEQKEIKEAEEKLVRTILKYVEEAAK | 0.446 |
| K85R (designed binder) SMEEEVEKAAKEYEKKKKEAIEKHLEKLKAKDKEAAERFLKELEEAAKEYAKDEAKTMSEEEAKRRAKKYKEKVLLSELSEEEQREIKEAEEKLVRTILKYVEEAAK | 0.593 |
| L25G (designed binder) SMEEEVEKAAKEYEKKKKEAIEKHGEKLKAKDKEAAERFLKELEEAAKEYAKDEAKTMSEEEAKRRAKKYKEKVLLSELSEEEQKEIKEAEEKLVRTILKYVEEAAK | 1.05 |
| E72Q (designed binder) SMEEEVEKAAKEYEKKKKEAIEKHLEKLKAKDKEAAERFLKELEEAAKEYAKDEAKTMSEEEAKRRAKKYKQKVLLSELSEEEQKEIKEAEEKLVRTILKYVEEAAK | 2.05 |
| I87N (designed binder) SMEEEVEKAAKEYEKKKKEAIEKHLEKLKAKDKEAAERFLKELEEAAKEYAKDEAKTMSEEEAKRRAKKYKEKVLLSELSEEEQKENKEAEEKLVRTILKYVEEAAK | 12.5 |
| L28T (designed binder) SMEEEVEKAAKEYEKKKKEAIEKHLEKTKAKDKEAAERFLKELEEAAKEYAKDEAKTMSEEEAKRRAKKYKEKVLLSELSEEEQKEIKEAEEKLVRTILKYVEEAAK | 0.79 |
| K33I (designed binder) SMEEEVEKAAKEYEKKKKEAIEKHLEKLKAKDIEAAERFLKELEEAAKEYAKDEAKTMSEEEAKRRAKKYKEKVLLSELSEEEQKEIKEAEEKLVRTILKYVEEAAK | 0.79 |
| E26H (designed binder) SMEEEVEKAAKEYEKKKKEAIEKHLHKLKAKDKEAAERFLKELEEAAKEYAKDEAKTMSEEEAKRRAKKYKEKVLLSELSEEEQKEIKEAEEKLVRTILKYVEEAAK | 0.539 |
| E83P (designed binder) SMEEEVEKAAKEYEKKKKEAIEKHLEKLKAKDKEAAERFLKELEEAAKEYAKDEAKTMSEEEAKRRAKKYKEKVLLSELSEEPQKEIKEAEEKLVRTILKYVEEAAK | 3.3 |
| S59Q (designed binder) SMEEEVEKAAKEYEKKKKEAIEKHLEKLKAKDKEAAERFLKELEEAAKEYAKDEAKTMQEEEAKRRAKKYKEKVLLSELSEEEQKEIKEAEEKLVRTILKYVEEAAK | 1.16 |
| K11T (designed binder) SMEEEVEKAATEYEKKKKEAIEKHLEKLKAKDKEAAERFLKELEEAAKEYAKDEAKTMSEEEAKRRAKKYKEKVLLSELSEEEQKEIKEAEEKLVRTILKYVEEAAK | 0.446 |
| E44D (designed binder) SMEEEVEKAAKEYEKKKKEAIEKHLEKLKAKDKEAAERFLKELDEAAKEYAKDEAKTMSEEEAKRRAKKYKEKVLLSELSEEEQKEIKEAEEKLVRTILKYVEEAAK | 0.869 |
| E91F (designed binder) SMEEEVEKAAKEYEKKKKEAIEKHLEKLKAKDKEAAERFLKELEEAAKEYAKDEAKTMSEEEAKRRAKKYKEKVLLSELSEEEQKEIKEAFEKLVRTILKYVEEAAK | 12.5 |

| Binder | apparent Kd (screen) [nM] |
| --- | --- |
| E22H (designed binder) SMEEEVEKAAKEYEKKKKEAIHKHLEKLKAKDKEAAERFLKELEEAAKEYAKDEAKTMSEEEAKRRAKKYKEKVLLSELSEEEQKEIKEAEEKLVRTILKYVEEAAK | 0.539 |
| S59A (designed binder) SMEEEVEKAAKEYEKKKKEAIEKHLEKLKAKDKEAAERFLKELEEAAKEYAKDEAKTMAEEEAKRRAKKYKEKVLLSELSEEEQKEIKEAEEKLVRTILKYVEEAAK | 0.593 |
| K41S (designed binder) SMEEEVEKAAKEYEKKKKEAIEKHLEKLKAKDKEAAERFLSELEEAAKEYAKDEAKTMSEEEAKRRAKKYKEKVLLSELSEEEQKEIKEAEEKLVRTILKYVEEAAK | 0.869 |
| K48C (designed binder) SMEEEVEKAAKEYEKKKKEAIEKHLEKLKAKDKEAAERFLKELEEAACEYAKDEAKTMSEEEAKRRAKKYKEKVLLSELSEEEQKEIKEAEEKLVRTILKYVEEAAK | 0.49 |
| E3T (designed binder) SMTEEVEKAAKEYEKKKKEAIEKHLEKLKAKDKEAAERFLKELEEAAKEYAKDEAKTMSEEEAKRRAKKYKEKVLLSELSEEEQKEIKEAEEKLVRTILKYVEEAAK | 1.4 |
| E45Q (designed binder) SMEEEVEKAAKEYEKKKKEAIEKHLEKLKAKDKEAAERFLKELEQAAKEYAKDEAKTMSEEEAKRRAKKYKEKVLLSELSEEEQKEIKEAEEKLVRTILKYVEEAAK | 1.05 |
| E7I (designed binder) SMEEEVIKAAKEYEKKKKEAIEKHLEKLKAKDKEAAERFLKELEEAAKEYAKDEAKTMSEEEAKRRAKKYKEKVLLSELSEEEQKEIKEAEEKLVRTILKYVEEAAK | 26.9 |
| A20I (designed binder) SMEEEVEKAAKEYEKKKKEIIEKHLEKLKAKDKEAAERFLKELEEAAKEYAKDEAKTMSEEEAKRRAKKYKEKVLLSELSEEEQKEIKEAEEKLVRTILKYVEEAAK | 0.539 |
| K31F (designed binder) SMEEEVEKAAKEYEKKKKEAIEKHLEKLKAFDKEAAERFLKELEEAAKEYAKDEAKTMSEEEAKRRAKKYKEKVLLSELSEEEQKEIKEAEEKLVRTILKYVEEAAK | 0.446 |
| K29R (designed binder) SMEEEVEKAAKEYEKKKKEAIEKHLEKLRAKDKEAAERFLKELEEAAKEYAKDEAKTMSEEEAKRRAKKYKEKVLLSELSEEEQKEIKEAEEKLVRTILKYVEEAAK | 0.539 |
| E45W (designed binder) SMEEEVEKAAKEYEKKKKEAIEKHLEKLKAKDKEAAERFLKELEWAAKEYAKDEAKTMSEEEAKRRAKKYKEKVLLSELSEEEQKEIKEAEEKLVRTILKYVEEAAK | 1.27 |
| K93H (designed binder) SMEEEVEKAAKEYEKKKKEAIEKHLEKLKAKDKEAAERFLKELEEAAKEYAKDEAKTMSEEEAKRRAKKYKEKVLLSELSEEEQKEIKEAEEHLVRTILKYVEEAAK | 0.869 |
| T97E (designed binder) SMEEEVEKAAKEYEKKKKEAIEKHLEKLKAKDKEAAERFLKELEEAAKEYAKDEAKTMSEEEAKRRAKKYKEKVLLSELSEEEQKEIKEAEEKLVREILKYVEEAAK | 1.69 |
| E5T (designed binder) SMEETVEKAAKEYEKKKKEAIEKHLEKLKAKDKEAAERFLKELEEAAKEYAKDEAKTMSEEEAKRRAKKYKEKVLLSELSEEEQKEIKEAEEKLVRTILKYVEEAAK | 0.446 |
| A20V (designed binder) SMEEEVEKAAKEYEKKKKEVIEKHLEKLKAKDKEAAERFLKELEEAAKEYAKDEAKTMSEEEAKRRAKKYKEKVLLSELSEEEQKEIKEAEEKLVRTILKYVEEAAK | 2.73 |
| E89D (designed binder) SMEEEVEKAAKEYEKKKKEAIEKHLEKLKAKDKEAAERFLKELEEAAKEYAKDEAKTMSEEEAKRRAKKYKEKVLLSELSEEEQKEIKDAEEKLVRTILKYVEEAAK | 0.653 |
| R38L (designed binder) SMEEEVEKAAKEYEKKKKEAIEKHLEKLKAKDKEAAELFLKELEEAAKEYAKDEAKTMSEEEAKRRAKKYKEKVLLSELSEEEQKEIKEAEEKLVRTILKYVEEAAK | 1.16 |
